Assay [1] concerns the target T1, human melanocortin-1 receptor (hMCR-1) expressed by the human melanoma cell line HBL (human, UniProt Q01726 1-317). The assay can be described thus: cell-based or functional assay.
Assay [2] has as its target T2, recombinant human melanocortin-1 receptor (hMCR-1a) in membrane homogenates of HEK-293 cells (human, UniProt Q01726 1-317).
T2 construct: whole, on cells; Used as membrane homogenates, not intact cells; also called hMCR-la; MC-1
Description: competitive inhibition of [I125]-NDP-alpha-MSH, hMCR-1 HEK-293 membranes. The method, then:
(§1) A competitive inhibition binding assay was performed using membrane homogenates prepared from HEK-293 cells that express recombinant hMCR-la or hMCR-4 (in each instance where the h prefix refers to human), or alternatively membrane homogenates from B16-F10 mouse melanoma cells containing endogenous murine MCR-1. In the examples that follow, all MCR-1 and MCR-4 values are for human recombinant receptors, unless otherwise noted. Assays were performed in 96 well polypropylene round-bottom plates (VWR catalog number 12777-030).
(§2) Membrane homogenates were incubated with 0.1 nM [I¹²⁵]-NDP-α-MSH (Perkin Elmer) and increasing concentrations of test peptides of the present invention in buffer containing 25 mM HEPES buffer (pH 7.5) with 100 mM NaCl, 2 mM CaCl₂, 2 mM MgCl₂, 0.3 mM 1,10-phenanthroline, and 0.2% bovine serum albumin. After incubation for 90 minutes at 37° C., the assay mixture was filtered onto GF/B Unifilter plates (Perkin-Elmer catalog number 6005177) and washed with 3 mL of ice-cold buffer per well. Filters were air dried and 35 μL of scintillation cocktail added to each well. Plates were counted in a Microbeta counter for bound radioactivity. […] Maximal specific binding (100%) was defined as the difference in radioactivity (cpm) bound to cell membranes in the absence and presence of 1 μM NDP-α-MSH. Each assay was conducted in duplicate and the actual mean values are described, with results less than 0% reported as 0%. Ki values for peptides of the present invention were determined using Graph-Pad PRISM® curve-fitting software.

Assay [3] has as its target T3, recombinant human melanocortin-4 receptor (hMCR-4) in membrane homogenates of HEK-293 cells (human, UniProt P32245 1-332).
T3 construct: whole, on cells; Used as membrane homogenates, not intact cells; also called MC-4
Description: competitive inhibition of [I125]-NDP-alpha-MSH, hMCR-4 HEK-293 membranes. The method, then: as §1, §2

Assay [4] deals with T1, human melanocortin-1 receptor (hMCR-1) …. Description: cell-based or functional assay. This is another data set of the same source.
For assay [5] the target is unchanged. Description: cell-based or functional assay. This is another data set of the same source.
Assay [6] shares this target. The assay can be described thus: cell-based or functional assay. This is another data set of the same source.
For assay [7] the target is unchanged. The assay can be described thus: cell-based or functional assay. This is another data set of the same source.
The target is the same in assay [8]. The assay can be described thus: cell-based or functional assay. This is another data set of the same source.
Assay [9] shares this target. Description: cell-based or functional assay. This is another data set of the same source.

Read-outs that look alike come from different tables or passages of the source. [ ]: non-standard residue; d: D form. Nle = CCCC[C@H](N)C(=O)O; Orn = NCCC[C@H](N)C(=O)O; Dab = NCC[C@H](N)C(=O)O; Sar = CNCC(=O)O

T3 sequence (P32245 whole entry): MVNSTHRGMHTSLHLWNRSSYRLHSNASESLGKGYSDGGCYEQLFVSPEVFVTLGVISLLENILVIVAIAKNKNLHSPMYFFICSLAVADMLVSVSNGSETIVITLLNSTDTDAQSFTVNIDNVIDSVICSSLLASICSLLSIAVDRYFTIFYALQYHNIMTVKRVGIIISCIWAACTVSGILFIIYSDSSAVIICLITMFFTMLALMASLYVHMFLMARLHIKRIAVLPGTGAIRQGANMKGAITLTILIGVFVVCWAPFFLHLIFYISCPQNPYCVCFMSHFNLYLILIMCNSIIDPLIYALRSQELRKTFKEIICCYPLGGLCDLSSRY
T1 sequence (Q01726 whole entry): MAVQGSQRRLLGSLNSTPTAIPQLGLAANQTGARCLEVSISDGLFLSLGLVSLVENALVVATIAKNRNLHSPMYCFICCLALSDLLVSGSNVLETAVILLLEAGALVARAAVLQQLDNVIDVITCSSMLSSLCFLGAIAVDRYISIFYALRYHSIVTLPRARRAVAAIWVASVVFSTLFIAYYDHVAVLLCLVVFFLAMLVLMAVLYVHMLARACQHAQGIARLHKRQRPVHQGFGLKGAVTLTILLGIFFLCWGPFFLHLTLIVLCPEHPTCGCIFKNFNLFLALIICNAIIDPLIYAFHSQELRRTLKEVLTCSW
T2 sequence (Q01726 whole entry): as above

B1: Ac-Nle-Ala-His-D-Phe-Arg-Gly-Trp-NH2 (peptide)
peptide: Ac-[Nle]AH[dF]RGW-NH2
SMILES: CCCC[C@H](NC(C)=O)C(=O)N[C@@H](C)C(=O)N[C@@H](Cc1c[nH]cn1)C(=O)N[C@H](Cc1ccccc1)C(=O)N[C@@H](CCCNC(=N)N)C(=O)NCC(=O)N[C@@H](Cc1c[nH]c2ccccc12)C(N)=O
notes: synthetic linear peptide
For orientation: Ki means the dissociation constant of the complex between target and ligand, obtained from inhibition or displacement. Take B1: the “MC-1 EC50 (average; cAMP HBL)” value in assay [1] was determined as 0.038 nM. Moreover, the inhibition constant Ki in [2] was 0.8 nM; in [3], 885 nM.

B2: Ac-Nle-Ala-Phe-D-Phe-Arg-Ala-Trp-NH2 (peptide)
peptide: Ac-[Nle]AF[dF]RAW-NH2
SMILES: CCCC[C@H](NC(C)=O)C(=O)N[C@@H](C)C(=O)N[C@@H](Cc1ccccc1)C(=O)N[C@H](Cc1ccccc1)C(=O)N[C@@H](CCCNC(=N)N)C(=O)N[C@@H](C)C(=O)N[C@@H](Cc1c[nH]c2ccccc12)C(N)=O
notes: synthetic linear peptide
As to B2, the inhibitory constant (Ki) in assay [2] came out at 20 nM; in [3], 1620 nM. The “MC-1 EC50 (average; cAMP HBL)” value in assay [4] was 6 nM.

B3: Ac-Nle-Ala-Lys-D-Phe-Arg-Ala-Trp-NH2 (peptide)
peptide: Ac-[Nle]AK[dF]RAW-NH2
SMILES: CCCC[C@H](NC(C)=O)C(=O)N[C@@H](C)C(=O)N[C@@H](CCCCN)C(=O)N[C@H](Cc1ccccc1)C(=O)N[C@@H](CCCNC(=N)N)C(=O)N[C@@H](C)C(=O)N[C@@H](Cc1c[nH]c2ccccc12)C(N)=O
notes: synthetic linear peptide
For B3, the values for the Ki in [2] and in assay [3] were 4 nM and 10000 nM, respectively. The “MC-1 EC50 (average; cAMP HBL)” value in assay [5] was determined as 0.1 nM.

B4: Ac-Nle-Ala-His-D-Phe-Arg-Sar-Trp-NH2 (peptide)
peptide: Ac-[Nle]AH[dF]R[Sar]W-NH2
SMILES: CCCC[C@H](NC(C)=O)C(=O)N[C@@H](C)C(=O)N[C@@H](Cc1c[nH]cn1)C(=O)N[C@H](Cc1ccccc1)C(=O)N[C@@H](CCCNC(=N)N)C(=O)N(C)CC(=O)N[C@@H](Cc1c[nH]c2ccccc12)C(N)=O
Turning to B4, the “MC-1 EC50 (average; cAMP HBL)” value in [6] turned out to be 0.17 nM.

B5: Ac-Nle-Ala-Orn-D-Phe-Arg-Ala-Trp-NH2 (peptide)
peptide: Ac-[Nle]A[Orn][dF]RAW-NH2
SMILES: CCCC[C@H](NC(C)=O)C(=O)N[C@@H](C)C(=O)N[C@@H](CCCN)C(=O)N[C@H](Cc1ccccc1)C(=O)N[C@@H](CCCNC(=N)N)C(=O)N[C@@H](C)C(=O)N[C@@H](Cc1c[nH]c2ccccc12)C(N)=O
B5: the “MC-1 EC50 (average; cAMP HBL)” value in assay [7] turned out to be 0.045 nM.

B6: Ac-Nle-Ala-Dab-D-Phe-Arg-Ala-Trp-NH2 (peptide)
peptide: Ac-[Nle]A[Dab][dF]RAW-NH2
SMILES: CCCC[C@H](NC(C)=O)C(=O)N[C@@H](C)C(=O)N[C@@H](CCN)C(=O)N[C@H](Cc1ccccc1)C(=O)N[C@@H](CCCNC(=N)N)C(=O)N[C@@H](C)C(=O)N[C@@H](Cc1c[nH]c2ccccc12)C(N)=O
Turning to B6, in [8], the “MC-1 EC50 (average; cAMP HBL)” value stood at 0.165 nM.

B7: Ac-Nle-His-D-Phe-Arg-Ala-Trp-NH2 (peptide)
peptide: Ac-[Nle]H[dF]RAW-NH2
SMILES: CCCC[C@H](NC(C)=O)C(=O)N[C@@H](Cc1c[nH]cn1)C(=O)N[C@H](Cc1ccccc1)C(=O)N[C@@H](CCCNC(=N)N)C(=O)N[C@@H](C)C(=O)N[C@@H](Cc1c[nH]c2ccccc12)C(N)=O
notes: synthetic linear peptide
Turning to B7, the Ki in assay [2] is 35 nM; in [3], 3420 nM. In addition, the “MC-1 EC50 (average; cAMP HBL)” value in assay [9] is 1 nM.

The values above are taken from US20150119341A1 (PALATIN TECHNOLOGIES, published 2015).
